Results on 13 proteins are retold here after patent US10358663B2, “Method of production of 2,4-dihydroxybutyric acid” (ADISSEO FRANCE S.A.S., priority 2010, dated 2019).

Substrate in data set [1]: N[C@@H](CC(=O)O)C(=O)O
In words: Aspartate kinase assay (ADP production coupled to NADH oxidation), His-tagged wild-type LysC. Format: biochemical, Escherichia coli. Conditions: other: His-tagged LysC, Eadie and Hofstee, pH 7.5, 30° C. How it is done:
Enzymatic assay: Aspartate or malate kinase activities were assayed by coupling ADP production in the kinase reactions to NADH oxidation in the presence of phosphoenolpyruvate, pyruvate kinase, and lactate dehydrogenase.
Aspartate (or Malate) Kinase aspartate (or malate)+ATP→4-phospho-(L)-aspartate (or 4-phospho-(L)-malate)+ADP
The assay mixture contained 50 mM Hepes (pH 7.5), 50 mM KCl, 5 mM MgCl2, 0.24 mM NADH, 0.96 mM ATP, 0.96 mM PEP, 9 μg/mL of lactate dehydrogenase (Sigma, L2500), 12.4 μg/mL pyruvate kinase (Sigma, P1506), and appropriate amounts of purified aspartate (malate) kinase. Reactions were started by adding 50 mM (L)-aspartate or (L)-malate. Enzymatic assays were carried out at 30° C. in 96-well flat bottomed microtiter plates in a final volume of 250 μL. The reactions were followed by the characteristic absorption of NADH at 340 nm in a microplate reader (BioRad 680XR).
Maximum activities for LysC and Hom3 on aspartate were 4.5 μmol/(min*mgprot) and 1.6 μmol/(min*mgprot), respectively. The Km value for aspartate was estimated with the method of Eadie and Hofstee by measuring initial reaction rates (v) at different substrate concentrations (c) and by extracting the slope of the v versus v/c plot. […]

Substrate in data set [2]: O=CC[C@H](O)C(=O)O
In words: Malate semialdehyde reductase assay, Ms-SSR N43H. Format: biochemical, Metallosphaera sedula. Conditions: other: malate semialdehyde, pH 7.5, 30° C. How it is done: (§1) Test for Malate Semialdehyde Reductase Activity: Reaction: (L)-Malate semialdehyde+NAD(P)H→(L)-2,4-dihydroxybutyric acid+NAD(P)
(§2) The assay mixture contained 200 mM Hepes (pH 7.5), 50 mM KCl, 5 mM MgCl2, 0.24 mM NADH or NADPH, and appropriate amounts of purified enzyme. Reactions were started by adding 10 mM (L)-malate semialdehyde (malate semialdehyde was prepared freshly for each test, see Example 4). Enzymatic assays were carried out at 30° C. in 96-well flat bottomed microtiter plates in a final volume of 250 μL. The reactions were followed by the characteristic absorption of NAD(P)H at 340 nm in a microplate reader (BioRad 680XR).
(§3) Site-directed mutagenesis was carried out using the oligonucleotide pairs listed in Table 8 and the pMs-SSR plasmid as the template. Point mutations to change the amino acid sequences were introduced by PCR (Phusion 1U, HF buffer 20% (v/v), dNTPs 2.5 mM, direct and reverse primers 1 μM each, template plasmid 200 ng, water). When possible, plasmids created by PCR contained new restriction sites (introduced using silent mutations) in addition to the functional mutation to facilitate identification of mutated clones. The PCR products were digested by DpnI at 37° C. for 1 h to remove template DNA, and transformed into NEB 5-alpha competent E. coli cells (NEB). […]

Substrate in data set [3]: O=CC[C@H](O)C(=O)O
In words: Malate semialdehyde reductase assay, Ms-SSR H39R. Format: biochemical, Metallosphaera sedula. Conditions: other: malate semialdehyde, pH 7.5, 30° C. How it is done: as §1, §2, §3

Substrate in data set [4]: O=CC[C@H](O)C(=O)O
Briefly: Malate semialdehyde reductase assay, Ms-SSR wild type. Format: biochemical, Metallosphaera sedula. Conditions: other: malate semialdehyde, pH 7.5, 30° C. How it is done: as §1, §2

Substrate in data set [5]: O=CC[C@H](O)C(=O)O
In words: Malate semialdehyde reductase assay, Ms-SSR H39R N43H. In kind it is biochemical, Metallosphaera sedula. Conditions: other: malate semialdehyde, pH 7.5, 30° C. How it is done:
as §1, §2, §3

Substrate in data set [6]: O=CC[C@H](O)C(=O)O
In words: Malate semialdehyde dehydrogenase assay, Asd E241Q T136N. In kind it is biochemical, Escherichia coli. Conditions: other: malate semialdehyde, reverse biosynthetic direction, pH 9, 0.25 mM NADP, 30° C. How it is done:
(§4) Enzymatic assay: Aspartate or malate semialdehyde dehydrogenase activities were assayed in the reverse biosynthetic direction by following the reduction of NADP during the oxidation of aspartate or malate semialdehyde to 4-phospho-(L)-aspartate or 4-phospho-(L)-malate, respectively (Roberts et al., 2003). (L)-aspartate semialdehyde (or (L)-malate semialdehyde)+NADP+Pi→4-phospho-(L)-aspartate (or 4-phospho-(L)-malate)+NADPH
(§5) The assay mixture contained 200 mM Hepes (pH 9), 50 mM K2HPO4, 0.25 mM NADP. Reactions were started by adding (L)-aspartate semialdehyde or (L)-malate semialdehyde. (L)-Aspartate semialdehyde was added in the form of L-aspartic acid β-semialdehyde hydrate trifluoroacetate (maintained at pH3 to prevent degradation) which is a suitable substrate for enzymatic tests of homoserine dehydrogenase and aspartate semialdehyde dehysrogenase (Roberts et al., 2003). Unstable malate semialdehyde was produced freshly prior to the enzymatic tests by the deprotection of the stable malate semialdehyde derivative 2-[(4S)-2,2-dimethyl-5-oxo-1,3-dioxolan-4-yl]acetaldehyde (DMODA). […]
Enzymatic assays were carried out in 96-well flat bottomed microtiter plates in a final volume of 250 μL at 30° C. The reactions were followed by the characteristic absorption of NADPH at 340 nm in a microplate reader (BioRad 680XR). […]

Substrate in data set [7]: O=CC[C@H](O)C(=O)O
In words: Malate semialdehyde dehydrogenase assay, Asd E241I. Format: biochemical, Escherichia coli. Conditions: other: malate semialdehyde, reverse biosynthetic direction, pH 9, 0.25 mM NADP, 30° C. How it is done:
as §4, §5
(§6) Enzymatic assays were carried out in 96-well flat bottomed microtiter plates in a final volume of 250 μL at 30° C. The reactions were followed by the characteristic absorption of NADPH at 340 nm in a microplate reader (BioRad 680XR).

Substrate in data set [8]: O=CC[C@H](O)C(=O)O
In words: Malate semialdehyde dehydrogenase assay, Asd E241H. Conditions: other: malate semialdehyde, reverse biosynthetic direction, pH 9, 0.25 mM NADP, 30° C. In kind it is biochemical, Escherichia coli. How it is done:
as §4, §5, §6

Substrate in data set [9]: O=CC[C@H](O)C(=O)O
In words: Malate semialdehyde dehydrogenase assay, Asd E241M. Conditions: other: malate semialdehyde, reverse biosynthetic direction, pH 9, 0.25 mM NADP, 30° C. Format: biochemical, Escherichia coli. How it is done: as §4, §5, §6

Substrate in data set [10]: O=CC[C@H](O)C(=O)O
In words: Malate semialdehyde dehydrogenase assay, Asd E241C. Format: biochemical, Escherichia coli. Conditions: other: malate semialdehyde, reverse biosynthetic direction, pH 9, 0.25 mM NADP, 30° C. How it is done:
as §4, §5, §6

Substrate in data set [11]: O=CC[C@H](O)C(=O)O
Briefly: Malate semialdehyde dehydrogenase assay, Asd E241A. Conditions: other: malate semialdehyde, reverse biosynthetic direction, pH 9, 0.25 mM NADP, 30° C. In kind it is biochemical, Escherichia coli. How it is done:
as §4, §5, §6

Substrate in data set [12]: O=CC[C@H](O)C(=O)O
Briefly: Malate semialdehyde dehydrogenase assay, Asd E241Q. Format: biochemical, Escherichia coli. Conditions: other: malate semialdehyde, reverse biosynthetic direction, pH 9, 0.25 mM NADP, 30° C. How it is done:
as §4, §5, §6

Substrate in data set [13]: O=CC[C@H](O)C(=O)O
In words: Malate semialdehyde dehydrogenase assay, Asd E241G. Format: biochemical, Escherichia coli. Conditions: other: malate semialdehyde, reverse biosynthetic direction, pH 9, 0.25 mM NADP, 30° C. How it is done: as §4, §5, §6

Changes are numbered by the printed parent chain. In names and notes the source's numbering stands.

B1: E. coli aspartate kinase III LysC, wild type, His-tagged, SEQ ID NO: 4 (Escherichia coli K-12) (protein)
chain: MSEIVVSKFGGTSVADFDAMNRSADIVLSDANVRLVVLSASAGITNLLVALAEGLEPGERFEKLDAIRNIQFAILERLRYPNVIREEIERLLENITVLAEAAALATSPALTDELVSHGELMSTLLFVEILRERDVQAQWFDVRKVMRTNDRFGRAEPDIAALAELAALQLLPRLNEGLVITQGFIGSENKGRTTTLGRGGSDYTAALLAEALHASRVDIWTDVPGIYTTDPRVVSAAKRIDEIAFAEAAEMATFGAKVLHPATLLPAVRSDIPVFVGSSKDPRAGGTLVCNKTENPPLFRALALRRNQTLLTLHSLNMLHSRGFLAEVFGILARHNISVDLITTSEVSVALTLDTTGSTSTGDTLLTQSLLMELSALCRVEVEEGLALVALIGNDLSKACGVGKEVFGVLEPFNIRMICYGASSHNLCFLVPGEDAEQVVQKLHSNLFE
As a reminder, the Km is the substrate concentration at which the rate is half of its maximum. Turning to B1, in data set [1], the Km was found to be 600 µM.

B2: Metallosphaera sedula succinic semialdehyde reductase Ms-SSR variant N43H, SEQ ID NO: 227 (Metallosphaera sedula DSM 5348; N43H) (protein)
chain: MKAAVLHTYKEPLSIEDVNISQPKAGEVKIKVKATGLCHSDVHVFEGKTPVPPPVVAGHEISGIVEEVGPGVTRVKPGDRVISAFIHPCGKCGNCVAGKENLCETFSQVRLKGVMPDGTSRLSKDGKEIRTFLGGGFAEYAIVGENALTRVPEDMDLEKVAVLGCAGLTGYGAISSSKIEPGDTVAVIGVGGVGLSTIQLLRASGAGRIIAVGTKKWKLDRAMELGATDVVNSKEIDPVKAIKEITGGGPQVVIEAGGNEDTIHMALDSVRIGGKVVLVGLPPATAMIPIRVASIVRGGIEVVGNYGGRPRVDMPKLLELVRQGRYDPSRLVTGRFRLEEINEAVKMLEEGEAIRSLIIP
B2: the Km in data set [2] came to 2500 µM.

B3: Metallosphaera sedula succinic semialdehyde reductase Ms-SSR variant H39R, SEQ ID NO: 225 (Metallosphaera sedula DSM 5348; H39R) (protein)
chain: B2 chain with H39R, H43N
Take B3: the Km in data set [3] stood at 500 µM.

B4: Metallosphaera sedula succinic semialdehyde reductase Ms-SSR, wild type, SEQ ID NO: 76 (Metallosphaera sedula DSM 5348) (protein)
chain: B2 chain with H43N
As to B4, in [4], the Km stood at 1100 µM.

B5: Metallosphaera sedula succinic semialdehyde reductase Ms-SSR variant H39R N43H, SEQ ID NO: 81 (Metallosphaera sedula DSM 5348; H39R/N43H) (protein)
chain: B2 chain with H39R
Regarding B5, in data set [5], the Km came out at 400 µM.

B6: E. coli aspartate semialdehyde dehydrogenase Asd variant E241Q T136N, SEQ ID NO: 231 (Escherichia coli K-12; E241Q/T136N) (protein)
chain: MKNVGFIGWRGMVGSVLMQRMVEERDFDAIRPVFFSTSQLGQAAPSFGGTTGTLQDAFDLEALKALDIIVTCQGGDYTNEIYPKLRESGWQGYWIDAASSLRMKDDAIIILDPVNQDVITDGLNNGIRTFVGGNCNVSLMLMSLGGLFANDLVDWVSVATYQAASGGGARHMRELLTQMGHLYGHVADELATPSSAILDIERKVTTLTRSGELPVDNFGVPLAGSLIPWIDKQLDNGQSRQEWKGQAETNKILNTSSVIPVDGLCVRVGALRCHSQAFTIKLKKDVSIPTVEELLAAHNPWAKVVPNDREITMRELTPAAVTGTLTTPVGRLRKLNMGPEFLSAFTVGDQLLWGAAEPLRRMLRQLA
For B6, the Km in data set [6] was 250 µM.

B7: E. coli aspartate semialdehyde dehydrogenase Asd variant E241I, SEQ ID NO: 62 (Escherichia coli K-12; E241I) (protein)
chain: B6 chain with N136T, Q241I
Usually Vmax stands for the top rate of the reaction or transport when substrate is in excess. Take B7: in data set [7], the Km amounted to 230 µM and the Vmax was determined as 0.10 µmol/mg/min.

B8: E. coli aspartate semialdehyde dehydrogenase Asd variant E241H, SEQ ID NO: 60 (Escherichia coli K-12; E241H) (protein)
chain: B6 chain with N136T, Q241H
Take B8: in data set [8], the Km stood at 800 µM and the maximum rate (Vmax) was 0.10 µmol/mg/min.

B9: E. coli aspartate semialdehyde dehydrogenase Asd variant E241M, SEQ ID NO: 64 (Escherichia coli K-12; E241M) (protein)
chain: B6 chain with N136T, Q241M
For B9, in data set [9], the Michaelis constant (Km) came to 430 µM and the Vmax stood at 0.15 µmol/mg/min.

B10: E. coli aspartate semialdehyde dehydrogenase Asd variant E241C, SEQ ID NO: 56 (Escherichia coli K-12; E241C) (protein)
chain: B6 chain with N136T, Q241C
With B10, in data set [10], the Km was 500 µM and the Vmax was determined as 0.18 µmol/mg/min.

B11: E. coli aspartate semialdehyde dehydrogenase Asd variant E241A, SEQ ID NO: 54 (Escherichia coli K-12; E241A) (protein)
chain: B6 chain with N136T, Q241A
As to B11, in [11], the Km came to 378 µM and the Vmax worked out at 0.09 µmol/mg/min.

B12: E. coli aspartate semialdehyde dehydrogenase Asd variant E241Q, SEQ ID NO: 66 (Escherichia coli K-12; E241Q) (protein)
chain: B6 chain with N136T
As for B12, in data set [12], the Km came to 520 µM and the Vmax came out at 0.39 µmol/mg/min.

B13: E. coli aspartate semialdehyde dehydrogenase Asd variant E241G, SEQ ID NO: 58 (Escherichia coli K-12; E241G) (protein)
chain: B6 chain with N136T, Q241G
As to B13, in data set [13], the Km amounted to 180 µM and the Vmax amounted to 0.09 µmol/mg/min.
